Tests used:
[1] = test system: COC(=O)[C@@H]1CC2=CC(=O)C(=O)C=C2N1; assay: purified protein; conditions: L-DOPA methyl ester (1-20 mM) oxidised in situ with sodium periodate, sodium phosphate pH 6.2, 1 mM EDTA, 37 °C, paper names the substrate L-DOPA methyl ester
[2] = biological target: T1, HsMIF (Homo sapiens, UniProt P14174); assay: dopachrome tautomerase assay, absorbance at […] nm; format: biochemical
T1 construct: gene MIF; commercial recombinant human MIF (R&D Systems)
T1 sequence (P14174 2-115): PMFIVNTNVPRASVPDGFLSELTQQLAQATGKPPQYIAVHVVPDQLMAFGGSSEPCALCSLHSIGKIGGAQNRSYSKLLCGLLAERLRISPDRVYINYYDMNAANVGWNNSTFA

TgMIF (Toxoplasma gondii)
Km [1]: 9.6 mM

COC(=O)CC1CC(c2ccc(O)cc2)=NO1 (racemic) [ISO-1]
inhibition at 10 µM [2]: 60%
